Data as given in article PMC2729365 (Nature structural & molecular biology, 2009).

Tests used:
AUC [1] = target: the molecule itself; assay: AUC
AUC [2] = target: the molecule itself; assay: AUC; remark: listed apart in the source

B1: GluR6 amino terminal domain (GluR6 R1R2 ATD, residues 1-389) expressed in wild type HEK293 cells (domain or fragment)
chain: TTHVLRFGGIFEYVESGPMGAEELAFRFAVNTINRNRTLLPNTTLTYDTQKINLYDSFEASKKACDQLSLGVAAIFGPSHSSSANAVQSICNALGVPHIQTRWKHQVSDNKDSFYVSLYPDFSSLSRAILDLVQFFKWKTVTVVYDDSTGLIRLQELIKAPSRYNLRLKIRQLPADTKDAKPLLKEMKRGKEFHVIFDCSHEMAAGILKQALAMGMMTEYYHYIFTTLDLFALDVEPYRYSGVNMTGFRILNTENTQVSSIIEKWSMERLQAPPKPDSGLLDGFMTTDAALMYDAVHVVSVAVQQFPQMTVSSLQCNRHKPWRFGTRFMSLIKEAHWEGLTGRITFNKTNGLRTDFDLDVISLKEEGLEKIGTWDPASGLNMTESQKGK
modifications: N-linked glycans at five sites, non uniform (complex) glycosylation
- stoichiometry N (AUC [1]): 2
- Kd (AUC [2]): 11.3 µM
